Reference: paper PMC4194032 (Cell, 2014)
Values belong to the molecule of their own block, whether it stands above or below them.

Legend:
Test in all cases: split reporter
[1] = target: Heh1-VN (budding yeast) (UniProt Q03707)
[2] = target: T1, Snf7-VN (budding yeast, UniProt P39929 1-240)
T1 sequence (looked up): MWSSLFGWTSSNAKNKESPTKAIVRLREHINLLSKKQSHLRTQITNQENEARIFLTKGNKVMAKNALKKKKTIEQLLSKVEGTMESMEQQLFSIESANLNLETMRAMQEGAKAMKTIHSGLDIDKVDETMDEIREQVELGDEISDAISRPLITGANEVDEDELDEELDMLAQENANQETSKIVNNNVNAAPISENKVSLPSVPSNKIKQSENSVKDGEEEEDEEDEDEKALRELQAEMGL

[3] = target: T2, Heh2-VN (budding yeast, UniProt Q03281 1-663)
T2 sequence (looked up): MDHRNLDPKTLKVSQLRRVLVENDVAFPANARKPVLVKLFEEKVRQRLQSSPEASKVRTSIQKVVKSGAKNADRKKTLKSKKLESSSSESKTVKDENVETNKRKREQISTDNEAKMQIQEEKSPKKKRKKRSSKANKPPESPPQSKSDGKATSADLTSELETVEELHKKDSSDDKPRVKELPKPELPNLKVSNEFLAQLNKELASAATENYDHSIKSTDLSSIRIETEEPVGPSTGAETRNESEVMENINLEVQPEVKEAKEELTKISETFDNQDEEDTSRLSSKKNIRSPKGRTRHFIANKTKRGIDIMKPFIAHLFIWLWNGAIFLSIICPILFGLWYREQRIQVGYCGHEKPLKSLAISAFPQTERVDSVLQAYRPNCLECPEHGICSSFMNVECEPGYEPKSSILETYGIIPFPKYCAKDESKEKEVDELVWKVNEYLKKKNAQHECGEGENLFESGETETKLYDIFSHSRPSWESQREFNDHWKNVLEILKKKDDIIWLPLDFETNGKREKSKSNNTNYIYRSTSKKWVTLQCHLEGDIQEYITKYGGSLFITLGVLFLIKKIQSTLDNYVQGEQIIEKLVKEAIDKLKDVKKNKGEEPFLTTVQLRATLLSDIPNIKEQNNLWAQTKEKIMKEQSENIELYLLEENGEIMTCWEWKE

Sequence of Heh1-VN (budding yeast) (Q03707 whole entry): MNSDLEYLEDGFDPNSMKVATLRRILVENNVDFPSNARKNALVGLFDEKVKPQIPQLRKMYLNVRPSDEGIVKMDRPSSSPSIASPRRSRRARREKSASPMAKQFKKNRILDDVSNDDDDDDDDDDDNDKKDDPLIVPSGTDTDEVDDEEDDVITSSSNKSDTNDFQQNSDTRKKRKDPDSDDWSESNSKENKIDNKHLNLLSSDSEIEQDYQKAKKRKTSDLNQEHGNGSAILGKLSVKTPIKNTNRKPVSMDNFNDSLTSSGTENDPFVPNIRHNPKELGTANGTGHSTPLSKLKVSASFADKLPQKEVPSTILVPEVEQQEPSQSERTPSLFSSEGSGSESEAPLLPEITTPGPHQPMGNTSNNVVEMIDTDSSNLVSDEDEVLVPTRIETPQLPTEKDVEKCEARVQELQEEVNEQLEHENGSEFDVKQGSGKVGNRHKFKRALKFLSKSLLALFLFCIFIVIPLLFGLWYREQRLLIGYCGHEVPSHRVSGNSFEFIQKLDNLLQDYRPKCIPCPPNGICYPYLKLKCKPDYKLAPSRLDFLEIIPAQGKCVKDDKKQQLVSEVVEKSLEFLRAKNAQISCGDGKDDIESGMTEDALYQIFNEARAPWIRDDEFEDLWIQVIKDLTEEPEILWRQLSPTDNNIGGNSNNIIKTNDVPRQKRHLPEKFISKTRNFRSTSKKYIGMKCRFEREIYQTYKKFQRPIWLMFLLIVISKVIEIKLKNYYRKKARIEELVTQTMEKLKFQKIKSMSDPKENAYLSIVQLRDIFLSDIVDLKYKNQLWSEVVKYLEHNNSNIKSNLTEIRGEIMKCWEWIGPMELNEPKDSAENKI

B1: Bro1-VC (natural protein, budding yeast, UniProt P48582 1-844, looked up)
chain: MKPYLFDLKLKDTEKLDWKKGLSSYLKKSYGSSQWRTFYDEKATSELDHLRNNANGELAPSSLSEQNLKYYSFLEHLYFRLGSKGSRLKMDFTWYDAEYSSAQKGLKYTQHTLAFEKSCTLFNIAVIFTQIARENINEDYKNSIANLTKAFSCFEYLSENFLNSPSVDLQSENTRFLANICHAEAQELFVLKLLNDQISSKQYTLISKLSRATCNLFQKCHDFMKEIDDDVAIYGEPKWKTTVTCKLHFYKSLSAYYHGLHLEEENRVGEAIAFLDFSMQQLISSLPFKTWLVEFIDFDGFKETLEKKQKELIKDNDFIYHESVPAVVQVDSIKALDAIKSPTWEKILEPYMQDVANKCDSLYRGIIPLDVYEKESIYSEEKATLLRKQVEETETANLEYSSFIEFTNLPRLLSDLEKQFSDGNIFSNTDTQGQLMRDQIQTWCKFIQTNEFRDIEEQMNKIVFKRKQILEILSALPNDQKENVTKLKSSLVAASNSDEKLFACVKPHIVEINLLNDNGKIWKKFDEFNRNTPPQPSLLDIDDTKNDKILELLKQVKGHAEDLRTLKEERSRNLSELRDEINNDDITKLLIINKGKSDVELKDLFEVELEKFEPLSTRIEATIYKQSSMIDDIKAKLDEIFHLSNFKDKSSGEEKFLEDRKNFFDKLQEAVKSFSIFASDLPKGIEFYDSLFNMSRDLAERVRVAKQTEDSTANSPAPPLPPLDSKASVVGGPPLLPQKSAAFQSLSRQGLNLGDQFQNLKISAGSDLPQGPGIPPRTYEASPYAATPTMAAPPVPPKQSQEDMYDLRRRKAVENEERELQENPTSFYNRPSVFDENMYSKYSS
- percent of cells with Venus fluorescence [2]: ~90 % of cells

B2: Snf7-VC (natural protein, budding yeast, UniProt P39929 1-240, looked up)
chain: T1 sequence (looked up)
- percent of cells with Venus fluorescence [3]: ~18 % of cells

Now from value to molecule:

- percent of cells with Venus fluorescence [1]: 45 % of cells
Molecule: Snf7-VC (from UniProt P39929 1-240) (natural protein)

- percent of cells with Venus fluorescence [2]: ~90 % of cells
B3: Vps20-VC (natural protein, budding yeast, UniProt Q04272 1-221, looked up)
chain: MGQKSSKVHITKTDRAILEVKRSKDEIHKFTRRTDNLILVEKSQLKDLIRKNPENYKSNMKVRFLLKRIHYQEHLLQQASDQLINLENMVSTLEFKMVEKQFINGLKNGNEILKKLNKEFSNVDELMDDVQDQIAYQNEINETLSRSLVGTSNYEDDLDKELDALESELNPEKMNNAKVANMPSTEGLPSLPQGEQTEQKEREEFATEERSDTKEPLALLS
